These results are taken from PMC11410778.

Experiment [1] concerns the target cOmpT D267S (Escherichia coli (avian pathogenic strain E058)) (UniProt P09169).
The target of experiment [2] is cOmpT D267S/S276T (Escherichia coli (avian pathogenic strain E058)) (UniProt P09169).
Experiment [3] has as its target cOmpT S276T (Escherichia coli (avian pathogenic strain E058)) (UniProt P09169).
Experiment [4] deals with chromosome-encoded OmpT (cOmpT) of avian pathogenic Escherichia coli E058 (Escherichia coli (avian pathogenic strain E058)) (UniProt P09169).
Experiment [5] addresses pOmpT S267D (Escherichia coli (avian pathogenic strain E058)).
For experiment [6], the target named is pOmpT S267D/T276S (Escherichia coli (avian pathogenic strain E058)).
In experiment [7] the target is pOmpT T276S (Escherichia coli (avian pathogenic strain E058)).
In experiment [8] the target is plasmid-encoded OmpT (pOmpT or ArlC) of avian pathogenic Escherichia coli E058 (Escherichia coli (avian pathogenic strain E058)).

Take “synthetic FRET substrate 2Abz-SLGRKIQI-K(Dnp)-NH2 (peptide)”: the Km of cleavage of the FRET substrate by whole E. coli BL21 expressing the protease (0–240 μM substrate, Michaelis–Menten fit) in experiment [1] was 0.0167 µM; in experiment [2] it was 0.0408 µM; in experiment [3], 0.0475 µM; in experiment [4], 0.0107 µM; in experiment [5], 0.0281 µM; in experiment [6] it was 0.0215 µM. For the same substance, the figures for the Km of cleavage of the FRET substrate by whole E. coli BL21 expressing the protease (0–240 μM substrate, Michaelis–Menten fit) in experiment [7] and in experiment [8] were 0.0157 µM and 0.0667 µM, respectively.
